Experimental data reported in publication PMC10035768.

Target: human Tau441 (2N4R), recombinant, phosphorylated in vitro by PKA (human) (UniProt P10636)
Test: cross-linking + other: mass photometry; BS3 amine-amine crosslinking of purified 4R tau (tau441, with or without PKA phosphorylation) with purified recombinant 14-3-3 β, 20-fold molar excess, 1× PBS pH 8.0, 30 min room temperature; mass photometry in DPBS at room temperature

Chain of human Tau441 (2N4R), recombinant, phosphorylated in vitro by PKA (human) (P10636 other isoform, or with tags, fused parts or gaps): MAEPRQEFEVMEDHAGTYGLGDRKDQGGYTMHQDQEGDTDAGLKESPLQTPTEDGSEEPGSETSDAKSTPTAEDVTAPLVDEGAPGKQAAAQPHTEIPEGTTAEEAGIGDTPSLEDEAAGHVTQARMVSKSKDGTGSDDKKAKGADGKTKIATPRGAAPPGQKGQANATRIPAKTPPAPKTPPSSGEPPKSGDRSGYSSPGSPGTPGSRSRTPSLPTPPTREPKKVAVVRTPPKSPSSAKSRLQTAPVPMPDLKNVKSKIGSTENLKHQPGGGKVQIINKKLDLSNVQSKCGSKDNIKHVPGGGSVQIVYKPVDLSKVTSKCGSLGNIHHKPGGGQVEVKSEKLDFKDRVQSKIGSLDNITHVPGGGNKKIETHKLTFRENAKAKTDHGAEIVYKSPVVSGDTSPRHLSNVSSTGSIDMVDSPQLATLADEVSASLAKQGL

## purified recombinant 14-3-3 β (from UniProt P31946 1-246) (natural protein)
  stoichiometry N (14-3-3-β per tau): 2
